Broadly, the EC50 is the concentration giving half of the maximal effect.

Residue numbers refer to the chain shown, from its start. Numbers in names are those of the source.

This test deals with T1, His-tagged human TSLP antigen (huTSLP-his) (human).
T1 construct: Secreted from HEK293E and purified on nickel; whole entry named; also called Human TSLP-his
Description: ELISA, coated huTSLP-his.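 Further: binding of antibodies to plate-bound TSLP read as absorbance at 450 nm after TMB colour development, EC50 derived from binding curves.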
Description: The plate was incubated at 4° C. overnight. After the liquid was discarded, 5% skim milk (skim milk powder from Brightdairy) blocking solution diluted with PBS was added at 200 μL/well, and the plate was incubated in an incubator at 37° C. for 2 h for blocking. After the blocking, the blocking solution was discarded, and the plate was washed 3 times with a PBST buffer (PBS containing 0.1% (v/v) tween-20, pH 7.4). […] After the incubation, the plate was washed 3 times with PBST. […] After the plate was washed 6 times with PBST, a TMB chromogenic substrate (KPL, 52-00-03) was added at 50 μL/well, and the plate was incubated at room temperature for 10-15 min. Then, 1 M H₂SO₄ was added at 50 μL/well to stop the reaction. The absorbance at 450 nm was read with a NOVOStar microplate reader, and the EC₅₀ values for the binding of the TSLP antibodies to TSLP were calculated.

B1: Ch179 (antibody, human IgG1, kappa, V domains shown)
VH: QVQLQQSGAELVRPGTSVKVSCKASGYAFTNYLIEWVKQRPGQGLEWIGVIDPGNGDTNYNENFKGKATLTADKSSSTAYIELSRLTSEDSAVYFCAREDNTGTAFDYWGQGTTLTVSS
VL: SIVMTQTPKFLLVSAGDRVTISCKASQSVSSDVTWYQQKPGQSPKLLIYYVSNHYTGVPDRFTGSGYGTDFTFTISSVQAEDLAVYFCQQHHRFPLTFGAGTKLELKR
notes: murine variable regions on human IgG1-YTE / kappa; also called chimeric antibody corresponding to mab179
Regarding B1, the concentration giving a half-maximal response (EC50) amounted to 0.202 nM.

B2: Ch119 (antibody, human IgG1, kappa, V domains shown)
VH: QAYLQQSGAELVRPGASVKMSCKASGFAFTTYNMHWVKHTPGQGLEWIGAIYPGNGETSYNQKFKDRATLTVDKSSRTAYMQLSSLTSEDSAVYFCAREDDYGEGYFDVWGAGTTVTVSS
VL: DIVLTQSPASLAVSLGQRATISCRASESVDNSGLSFMHWYQQKPGQPPRLLLYRASNLGSGIPARFSGSGSGTDFTLTLNPVETDDVATYYCQQINTDPLTFGAGTKLELKR
notes: murine variable regions on human IgG1-YTE / kappa; also called chimeric antibody corresponding to mab119
B2 displayed a concentration giving a half-maximal response (EC50) of 0.851 nM.

B3: hu119-25 (antibody, human IgG1, kappa)
heavy: EAQLVQSGAEVKKPGSSVKVSCKASGFTFSTYNMHWVRQAPGQGLEWIGAIYPGNGETSYNQKFKDRATLTVDKSTSTAYMELSSLRSEDTAVYYCAREDDYGEGYFDVWGQGTTVTVSSASTKGPSVFPLAPSSKSTSGGTAALGCLVKDYFPEPVTVSWNSGALTSGVHTFPAVLQSSGLYSLSSVVTVPSSSLGTQTYICNVNHKPSNTKVDKKVEPKSCDKTHTCPPCPAPELLGGPSVFLFPPKPKDTLYITREPEVTCVVVDVSHEDPEVKFNWYVDGVEVHNAKTKPREEQYNSTYRVVSVLTVLHQDWLNGKEYKCKVSNKALPAPIEKTISKAKGQPREPQVYTLPPSRDELTKNQVSLTCLVKGFYPSDIAVEWESNGQPENNYKTTPPVLDSDGSFFLYSKLTVDKSRWQQGNVFSCSVMHEALHNHYTQKSLSLSPGK
light: DIVLTQSPATLSLSPGERATLSCRASESVDNSGLSFMHWYQQKPGQPPRLLLYRASNLGSGIPARFSGSGSGTDFTLTISSLEPEDFAVYYCQQINTDPLTFGQGTKLEIKRTVAAPSVFIFPPSDEQLKSGTASVVCLLNNFYPREAKVQWKVDNALQSGNSQESVTEQDSKDSTYSLSSTLTLSKADYEKHKVYACEVTHQGLSSPVTKSFNRGEC
notes: IgG1-YTE, kappa
In the case of B3, the midpoint of the response, the EC50, lay at 0.357 nM.

B4: hu119-02 (antibody, human IgG1, kappa)
heavy: B3 heavy with A2V, I48M, A68V
light: DIVMTQSPDSLAVSLGERATINCRASESVDNSGLSFMHWYQQKPGQPPKLLIYRASNLGSGVPDRFSGSGSGTDFTLTISSLQAEDVAVYYCQQINTDPLTFGQGTKLEIKRTVAAPSVFIFPPSDEQLKSGTASVVCLLNNFYPREAKVQWKVDNALQSGNSQESVTEQDSKDSTYSLSSTLTLSKADYEKHKVYACEVTHQGLSSPVTKSFNRGEC
notes: IgG1-YTE, kappa
As to B4, the EC50 is 0.194 nM.

B5: hu119-10 (antibody, human IgG1, kappa, V domains shown)
VH: EVQLVQSGAEVKKPGSSVKVSCKASGFTFSTYNMHWVRQAPGQGLEWMGAIYPGNGETSYNQKFKDRVTLTVDKSTSTAYMELSSLRSEDTAVYYCAREDDYGEGYFDVWGQGTTVTVSS
VL: DIVMTQSPDSLAVSLGERATINCRASESVDNSGLSFMHWYQQKPGQPPKLLLYRASNLGSGIPDRFSGSGSGTDFTLTISSLQAEDVAVYYCQQINTDPLTFGQGTKLEIKR
notes: IgG1-YTE, kappa
With B5, the EC50 worked out at 0.233 nM.

B6: hu119-09 (antibody, human IgG1, kappa, V domains shown)
VH: B5 VH with F27G, L70I, V72A
VL: B5 VL
notes: IgG1-YTE, kappa
B6 came in with an EC50 of 0.149 nM.

B7: hu119-05 (antibody, human IgG1, kappa)
heavy: B3 heavy with A2V, F27G, I48M, A68V, L70I, V72A
light: B4 light with M4L
notes: IgG1-YTE, kappa
Molecule B7 came in with an EC50 of 0.144 nM.

B8: hu119-04 (antibody, IgG1)
heavy: B3 heavy with A2V, R38K, Q39H
light: B4 light
notes: IgG1-YTE, kappa
B8 showed a half-maximal effective concentration (EC50) of 0.188 nM.

B9: hu119-26 (antibody, human IgG1, kappa)
heavy: B3 heavy with A2V, F27G, S77R
light: B3 light
notes: IgG1-YTE, kappa
Regarding B9, the EC50 was 0.378 nM.

B10: hu119-27 (antibody, human IgG1, kappa)
heavy: B3 heavy with S77R
light: B3 light
notes: IgG1-YTE, kappa
Molecule B10 showed a concentration giving a half-maximal response (EC50) of 0.335 nM.

B11: hu119-28 (antibody, human IgG1, kappa, V domains shown)
VH: B5 VH with R38K, Q39H, M48I, V68A
VL: B5 VL with M4L, N31S, L52I, I62V
notes: IgG1-YTE, kappa; also called hu119VH3 + hu119VL2-N31S
For the molecule B11, the EC50 was 0.265 nM.

B12: hu119-01 (antibody, human IgG1, kappa)
heavy: B3 heavy with A2V, F27G, I48M, A68V, L70I, V72A
light: B4 light
notes: IgG1-YTE, kappa
B12 returned an EC50 of 0.107 nM.

B13: hu119-08 (antibody, human IgG1, kappa)
heavy: B3 heavy with A2V, R38K, Q39H
light: B4 light with M4L
notes: IgG1-YTE, kappa
Turning to B13, a half-maximal response (EC50) required 0.202 nM.

B14: hu119-06 (antibody, human IgG1, kappa)
heavy: B3 heavy with A2V, I48M, A68V
light: B4 light with M4L
notes: IgG1-YTE, kappa
The molecule B14 came in with an EC50 of 0.221 nM.

B15: hu119-29 (antibody, human IgG1, kappa, V domains shown)
VH: B5 VH with R38K, Q39H, M48I, V68A
VL: B5 VL with M4L, N31Q, L52I, I62V
notes: IgG1-YTE, kappa; also called hu119VH3 + hu119VL2-N31Q
Molecule B15 showed a concentration for a half-maximal effect (EC50) of 0.273 nM.

B16: hu119-12 (antibody, IgG1, V domains shown)
VH: B5 VH with R38K, Q39H, M48I, V68A
VL: B5 VL
notes: IgG1-YTE, kappa
Take B16: the EC50 was determined as 0.203 nM.

B17: Ch3 (antibody, human IgG1, kappa, V domains shown)
VH: EVQLQQSGPVLVKPGASVKMSCKASGYTFTDDYMNWVKQSHGKSLEWIGIISPYNGGTSYNQKFKGKATLTVDKSSSTAYMELNSLTSEDSAVYYCAREDYDYDGYAMDHWGQGTSVTVSS
VL: QIVLSQSPAILSASPGEKVTMTCRASSSVSYMHWYQQKPGSSPKPWIYATSNLASGVPARFSGSGSGTSYSLTISRVEAEDAATYYCQQWSSNRTFGGGTKLEIKR
notes: murine variable regions on human IgG1-YTE / kappa; also called chimeric antibody corresponding to mab3
As for B17, the EC50 was determined as 0.493 nM.

B18: hu179-06 (antibody, human IgG1, kappa, V domains shown)
VH: EVQLVQSGAEVKKPGSSVKVSCKASGYTFSNYLIEWVRQAPGQGLEWIGVIDPGNGDTNYNENFKGRATLTADKSTSTAYIELSSLRSEDTAVYYCAREDNTGTAFDYWGQGTTVTVSS
VL: DIVMTQSPDSLAVSLGERATINCKASQSVSSDVTWYQQKPGQSPKLLIYYVSNHYTGVPDRFSGSGSGTDFTLTISSLQAEDVAVYYCQQHHRFPLTFGQGTKLEIKR
notes: IgG1-YTE, kappa
Consider B18, for which the EC50 came out at 0.219 nM.

B19: hu179-01 (antibody, human IgG1, kappa, V domains shown)
VH: B18 VH with Y27G, I48M, A68V, L70I, I81M
VL: B18 VL with S43P
notes: IgG1-YTE, kappa
B19 displayed a concentration for a half-maximal effect (EC50) of 0.125 nM.

B20: hu179-21 (antibody, human IgG1, kappa, V domains shown)
VH: B18 VH with Y27G, I48M, N55V, A68V, L70I, I81M
VL: B18 VL
notes: IgG1-YTE, kappa; also called hu179VH1-N55V + hu179VL2
Turning to B20, the EC50 was determined as 0.978 nM.

B21: hu179-20 (antibody, human IgG1, kappa, V domains shown)
VH: B18 VH with Y27G, I48M, N55Q, A68V, L70I, I81M
VL: B18 VL
notes: IgG1-YTE, kappa; also called hu179VH1-N55Q + hu179VL2
With B21, a half-maximal response (EC50) required 0.708 nM.

B22: hu179-13 (antibody, human IgG1, kappa, V domains shown)
VH: B18 VH with R38K, R67K, S85R
VL: B18 VL
notes: IgG1-YTE, kappa
Regarding B22, the 50% effective concentration (EC50) is 0.201 nM.

B23: hu179-23 (antibody, human IgG1, kappa, V domains shown)
VH: B18 VH with Y27G, I48M, A68V, L70I, I81M
VL: B18 VL with N53D
notes: IgG1-YTE, kappa
B23 registered an EC50 of 0.997 nM.

B24: hu179-03 (antibody, human IgG1, kappa, V domains shown)
VH: B18 VH with I48M, A68V, I81M
VL: B18 VL with S43P
notes: IgG1-YTE, kappa
B24 yielded an EC50 of 0.138 nM.

B25: hu179-02 (antibody, human IgG1, kappa, V domains shown)
VH: B18 VH with Y27G, I48M, A68V, L70I, I81M
VL: B18 VL
notes: IgG1-YTE, kappa
The molecule B25 registered an EC50 of 0.17 nM.

B26: hu179-22 (antibody, human IgG1, kappa, V domains shown)
VH: B18 VH with Y27G, I48M, G56V, A68V, L70I, I81M
VL: B18 VL
notes: IgG1-YTE, kappa; also called hu179VH1-G56V + hu179VL2
As to B26, the concentration for a half-maximal effect (EC50) amounted to 0.752 nM.

B27: hu179-14 (antibody, human IgG1, kappa, V domains shown)
VH: B18 VH with T28A, I81M
VL: B18 VL with L73F
notes: IgG1-YTE, kappa
As to B27, the response was half-maximal at 0.205 nM (EC50).

B28: hu179-04 (antibody, human IgG1, kappa, V domains shown)
VH: B18 VH with I48M, A68V, I81M
VL: B18 VL
notes: IgG1-YTE, kappa
Molecule B28 yielded an EC50 of 0.189 nM.

B29: hu179-15 (antibody, human IgG1, kappa, V domains shown)
VH: B18 VH with T28A, I81M
VL: B18 VL with D1S
notes: IgG1-YTE, kappa
In turn, B29 came in with a concentration giving a half-maximal response (EC50) of 0.203 nM.

B30: hu179-05 (antibody, human IgG1, kappa, V domains shown)
VH: B18 VH
VL: B18 VL with S43P
notes: IgG1-YTE, kappa
B30 displayed an EC50 of 0.142 nM.

B31: hu179-07 (antibody, human IgG1, kappa, V domains shown)
VH: B18 VH
VL: B18 VL with L73F
notes: IgG1-YTE, kappa
In turn, B31 yielded a concentration for a half-maximal effect (EC50) of 0.448 nM.

B32: hu179-12 (antibody, human IgG1, kappa, V domains shown)
VH: B18 VH with R38K, R67K, S85R
VL: B18 VL with S43P
notes: IgG1-YTE, kappa
For the molecule B32, the EC50 came out at 0.144 nM.

For the origin of these results see patent publication US20240016931A1 (JIANGSU HENGRUI PHARMACEUTICALS, published 2024).
